IntAct's records for PubMed 31515488

B1: Keratin, type I cytoskeletal 40 (Homo sapiens), Q6A162 (parent)
chain: MTSDCSSTHCSPESCGTASGCAPASSCSVETACLPGTCATSRCQTPSFLSRSRGLTGCLLPCYFTGSCNSPCLVGNCAWCEDGVFTSNEKETMQFLNDRLASYLEKVRSLEETNAELESRIQEQCEQDIPMVCPDYQRYFNTIEDLQQKILCTKAENSRLAVQLDNCKLATDDFKSKYESELSLRQLLEADISSLHGILEELTLCKSDLEAHVESLKEDLLCLKKNHEEEVNLLREQLGDRLSVELDTAPTLDLNRVLDEMRCQCETVLANNRREAEEWLAVQTEELNQQQLSSAEQLQGCQMEILELKRTASALEIELQAQQSLTESLECTVAETEAQYSSQLAQIQCLIDNLENQLAEIRCDLERQNQEYQVLLDVKARLEGEINTYWGLLDSEDSRLSCSPCSTTCTSSNTCEPCSAYVICTVENCCL

Variants of: B1
Conditions: with wt1_human WT1, P19544
Chain of wt1_human WT1, P19544 (P19544 whole entry): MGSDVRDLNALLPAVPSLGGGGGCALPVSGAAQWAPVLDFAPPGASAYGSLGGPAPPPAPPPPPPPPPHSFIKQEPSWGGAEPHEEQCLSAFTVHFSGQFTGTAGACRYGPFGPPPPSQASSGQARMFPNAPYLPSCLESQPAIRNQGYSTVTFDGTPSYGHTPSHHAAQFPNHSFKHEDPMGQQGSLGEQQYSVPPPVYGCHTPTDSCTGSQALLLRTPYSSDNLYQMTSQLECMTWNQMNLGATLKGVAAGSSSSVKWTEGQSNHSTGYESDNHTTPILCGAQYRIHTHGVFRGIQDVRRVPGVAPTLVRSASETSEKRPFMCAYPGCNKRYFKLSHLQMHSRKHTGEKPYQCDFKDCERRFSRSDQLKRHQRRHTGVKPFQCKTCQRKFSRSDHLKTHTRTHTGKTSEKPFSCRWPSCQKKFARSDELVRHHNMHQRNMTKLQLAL

Variant | effect of a mutation on the interaction
F85S | with no effect
S102N | with no effect

The remaining lines, values ahead:

effect of a mutation on the interaction | Variant
with no effect | C349R
with no effect | S406L
with no effect | T153M
with no effect | W390R

Variants of: B1
Conditions: with k2c4_human KRT4, P19013
Chain of k2c4_human KRT4, P19013 (P19013 whole entry): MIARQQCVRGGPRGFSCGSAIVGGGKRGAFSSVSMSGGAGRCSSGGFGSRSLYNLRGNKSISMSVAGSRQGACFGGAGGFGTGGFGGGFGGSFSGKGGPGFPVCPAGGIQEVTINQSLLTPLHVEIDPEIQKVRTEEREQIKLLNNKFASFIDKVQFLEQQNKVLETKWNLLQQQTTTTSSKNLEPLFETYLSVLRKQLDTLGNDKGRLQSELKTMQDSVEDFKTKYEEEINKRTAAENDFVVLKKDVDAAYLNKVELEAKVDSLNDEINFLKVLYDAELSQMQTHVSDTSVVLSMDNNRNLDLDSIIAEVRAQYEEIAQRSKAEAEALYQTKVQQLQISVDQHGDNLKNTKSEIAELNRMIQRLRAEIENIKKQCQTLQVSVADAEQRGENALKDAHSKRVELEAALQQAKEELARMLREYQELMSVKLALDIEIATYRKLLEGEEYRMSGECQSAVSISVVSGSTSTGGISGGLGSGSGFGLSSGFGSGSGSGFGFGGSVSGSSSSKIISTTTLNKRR

Variant | effect of a mutation on the interaction
F85S | with no effect
S102N | with no effect

The next lines start with the values.

effect of a mutation on the interaction | Variant
with no effect | C349R
with no effect | S406L
with no effect | T153M
with no effect | W390R

Variants of: B1
Conditions: with mta1_human MTA1, Q13330
Chain of mta1_human MTA1, Q13330 (Q13330 whole entry): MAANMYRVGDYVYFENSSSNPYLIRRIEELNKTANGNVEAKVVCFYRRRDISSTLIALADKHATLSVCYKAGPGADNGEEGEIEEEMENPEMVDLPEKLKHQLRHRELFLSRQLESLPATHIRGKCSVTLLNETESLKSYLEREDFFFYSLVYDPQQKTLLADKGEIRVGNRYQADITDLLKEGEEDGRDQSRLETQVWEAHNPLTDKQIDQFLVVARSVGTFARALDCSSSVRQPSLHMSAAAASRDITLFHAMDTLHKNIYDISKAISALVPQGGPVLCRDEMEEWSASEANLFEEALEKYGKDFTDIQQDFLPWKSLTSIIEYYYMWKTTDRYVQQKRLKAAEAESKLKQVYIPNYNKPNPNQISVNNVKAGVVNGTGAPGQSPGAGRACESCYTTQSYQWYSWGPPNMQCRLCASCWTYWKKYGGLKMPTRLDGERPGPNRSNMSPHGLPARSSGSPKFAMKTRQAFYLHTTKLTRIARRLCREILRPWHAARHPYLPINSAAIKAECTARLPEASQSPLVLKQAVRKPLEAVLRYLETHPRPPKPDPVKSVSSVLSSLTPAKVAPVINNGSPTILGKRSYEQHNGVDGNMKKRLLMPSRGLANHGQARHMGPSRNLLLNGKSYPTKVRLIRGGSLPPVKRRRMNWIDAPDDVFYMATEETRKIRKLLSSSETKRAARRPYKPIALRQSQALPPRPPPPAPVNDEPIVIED

Variant | effect of a mutation on the interaction
F85S | with no effect
S102N | with no effect

The next lines start with the values.

effect of a mutation on the interaction | Variant
with no effect | C349R
with no effect | S406L
with no effect | T153M
with no effect | W390R

Variants of: B1
Conditions: with prs8_human PSMC5, P62195
Chain of prs8_human PSMC5, P62195 (P62195 whole entry): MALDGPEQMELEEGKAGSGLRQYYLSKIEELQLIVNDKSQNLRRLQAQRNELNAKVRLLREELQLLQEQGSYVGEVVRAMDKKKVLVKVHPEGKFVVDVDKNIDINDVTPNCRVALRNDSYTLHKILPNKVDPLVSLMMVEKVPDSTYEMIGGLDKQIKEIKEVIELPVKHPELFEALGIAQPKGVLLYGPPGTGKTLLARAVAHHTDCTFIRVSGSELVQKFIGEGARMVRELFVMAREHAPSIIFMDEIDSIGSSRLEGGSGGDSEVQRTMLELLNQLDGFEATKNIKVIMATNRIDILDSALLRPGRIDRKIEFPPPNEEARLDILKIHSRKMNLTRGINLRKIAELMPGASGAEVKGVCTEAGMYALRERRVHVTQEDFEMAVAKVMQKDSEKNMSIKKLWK

Variant | effect of a mutation on the interaction
F85S | with no effect
S102N | with no effect

Next, values leading:

effect of a mutation on the interaction | Variant
with no effect | C349R
with no effect | S406L
with no effect | T153M
with no effect | W390R

Variants of: B1
Conditions: with snai1_human SNAI1, O95863
Chain of snai1_human SNAI1, O95863 (O95863 whole entry): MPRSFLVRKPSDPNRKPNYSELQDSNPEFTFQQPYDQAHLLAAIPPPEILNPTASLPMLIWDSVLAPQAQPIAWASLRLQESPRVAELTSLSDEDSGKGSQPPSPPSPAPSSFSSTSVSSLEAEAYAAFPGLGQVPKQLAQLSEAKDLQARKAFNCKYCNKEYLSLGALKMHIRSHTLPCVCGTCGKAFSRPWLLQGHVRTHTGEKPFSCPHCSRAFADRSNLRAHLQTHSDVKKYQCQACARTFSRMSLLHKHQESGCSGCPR

Variant | effect of a mutation on the interaction
F85S | with no effect
S102N | with no effect

Results, then the variant that gave them:

effect of a mutation on the interaction | Variant
with no effect | C349R
with no effect | S406L
with no effect | T153M
with no effect | W390R
